Key:
[1] = target: T1, human claudin 3 (human, UniProt O15551 1-220); experiment: LigandTracer Green, FITC-conjugated antibody on hCLDN3/HEK293 cells against HEK293, 1:1 two state model
T1 construct: cell lysate in the immunoprecipitation; also called CLDN3; hCLDN3
T1 sequence: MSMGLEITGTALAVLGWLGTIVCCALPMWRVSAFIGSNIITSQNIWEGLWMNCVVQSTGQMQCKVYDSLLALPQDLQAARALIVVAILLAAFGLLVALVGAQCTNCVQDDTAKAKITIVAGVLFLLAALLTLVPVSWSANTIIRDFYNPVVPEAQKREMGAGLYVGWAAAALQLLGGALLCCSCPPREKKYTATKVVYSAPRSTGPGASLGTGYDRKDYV

[2] = target: T1, human claudin 3; experiment: LigandTracer Green, FITC-conjugated antibody on hCLDN3/TOV-112D cells against TOV-112D, 1:1 two state model
[3] = target: T1, human claudin 3; experiment: LigandTracer Green, FITC-conjugated antibody on hCLDN3/HEK293 cells against HEK293, 1:1 two state model (ka1)
[4] = target: T1, human claudin 3; experiment: LigandTracer Green, FITC-conjugated antibody on hCLDN3/HEK293 cells against HEK293, 1:1 two state model (kd1)
[5] = target: T1, human claudin 3; experiment: LigandTracer Green, FITC-conjugated antibody on hCLDN3/TOV-112D cells against TOV-112D, 1:1 two state model (ka1)
[6] = target: T1, human claudin 3; experiment: LigandTracer Green, FITC-conjugated antibody on hCLDN3/TOV-112D cells against TOV-112D, 1:1 two state model (kd1)

Kd [1]: 4.03 nM
Kd [2]: 2.35 nM
kon [3]: 46600 M⁻¹ s⁻¹
koff [4]: 0.000671 s⁻¹
kon [5]: 47400 M⁻¹ s⁻¹
koff [6]: 0.000337 s⁻¹
B1: 4G3 IgG antibody (antibody, V domains shown)
VH: EVQLLESGGGLVQPGGSLRLSCAASGFTFSSYAMSWVRQAPGKGLEWVSIINPSGASTSHAQRFQGRFTISRDNSKNTLYLQMNSLRAEDTAVYYCARYGRYGSFDIWGQGTLVTVSS
VL: QSVLTQPPSASGTPGQRVTISCSGSTSNIGRNYVSWYQQLPGTAPKLLIYDTSNKHFGVPDRFSGSKSGTSASLAISGLRSEDEADYYCQSYDSSKVVFGGGTKLTVL

Reference: patent US12098198 (ABION, dated 2024)
